Measurements as given in PMC4449551, “The dominant negative ARM domain uncovers multiple functions of PUB13 in Arabidopsis immunity, flowering, and senescence” (Journal of Experimental Botany, 2015).

Target: T1, GST–PUB13 (Arabidopsis, UniProt Q9SNC6 1-660)
T1 construct: PUB13, plant U-box E3 ubiquitin ligase of Arabidopsis, full length (UND, U-box and ARM repeat domain); also called full-length PUB13; source: E. coli BL21, purified (glutathione agarose)
T1 sequence (looked up): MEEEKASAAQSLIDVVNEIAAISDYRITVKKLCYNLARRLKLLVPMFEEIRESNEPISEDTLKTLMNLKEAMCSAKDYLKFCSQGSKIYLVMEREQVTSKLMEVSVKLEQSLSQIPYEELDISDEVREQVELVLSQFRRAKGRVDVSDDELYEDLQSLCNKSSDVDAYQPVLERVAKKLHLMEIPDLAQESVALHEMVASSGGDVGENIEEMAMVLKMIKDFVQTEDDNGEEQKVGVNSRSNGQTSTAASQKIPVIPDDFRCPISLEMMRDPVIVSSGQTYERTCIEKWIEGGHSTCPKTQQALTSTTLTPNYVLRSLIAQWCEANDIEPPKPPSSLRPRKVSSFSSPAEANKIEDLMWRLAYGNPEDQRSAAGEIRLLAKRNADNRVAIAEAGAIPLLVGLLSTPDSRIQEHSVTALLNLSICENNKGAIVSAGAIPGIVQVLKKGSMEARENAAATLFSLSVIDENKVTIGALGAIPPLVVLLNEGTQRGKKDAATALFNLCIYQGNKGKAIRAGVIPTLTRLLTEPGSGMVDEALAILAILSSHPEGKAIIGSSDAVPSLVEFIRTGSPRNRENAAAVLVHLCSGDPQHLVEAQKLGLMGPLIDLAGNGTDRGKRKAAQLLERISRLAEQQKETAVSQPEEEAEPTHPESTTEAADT
Experiment: pull-down; About 10 μg of MBP or MBP fusion on amylose beads as bait, 10 μg of GST-tagged protein in 1 ml pull-down buffer (20mM TRIS-HCl pH 7.5, 1mM β-mercaptoethanol, 3mM EDTA, 150mM NaCl, 1% NP-40), 1h at 4 °C; western blot with α-GST (Fig. 1B, 1F)
Settings: both partners purified

- binding result: binds
B1: MBP–BAK1CD (domain or fragment, Arabidopsis, UniProt Q94F62 247-615, looked up)
chain: AWWRRKKPQDHFFDVPAEEDPEVHLGQLKRFSLRELQVASDNFSNKNILGRGGFGKVYKGRLADGTLVAVKRLKEERTQGGELQFQTEVEMISMAVHRNLLRLRGFCMTPTERLLVYPYMANGSVASCLRERPESQPPLDWPKRQRIALGSARGLAYLHDHCDPKIIHRDVKAANILLDEEFEAVVGDFGLAKLMDYKDTHVTTAVRGTIGHIAPEYLSTGKSSEKTDVFGYGVMLLELITGQRAFDLARLANDDDVMLLDWVKGLLKEKKLEALVDVDLQGNYKDEEVEQLIQVALLCTQSSPMERPKMSEVVRMLEGDGLAERWEEWQKEEMFRQDFNYPTHHPAVSGWIIGDSTSQIENEYPSGPR
notes: BAK1 (BRI1-associated kinase), receptor-like kinase of Arabidopsis, cytoplasmic domain; also called cytoplasmic domain of BAK1; BAK1 cytosolic domain; source: E. coli BL21, purified (amylose)
